Data taken from patent publication US20260242478A1 (published 2026).
Where no end group is shown, it is not given here.

B1: Phage-3737 (peptide)
peptide: VSHHCVPAWMCFGL
notes: also called Peptide-180 library clone
B2: Phage-3731 (peptide)
peptide: LYKECVPQWMCSGF
notes: as for B1
B3: Phage-3733 (peptide)
peptide: ADVRCVPDWMCWGM
notes: as for B1
B4: Phage-3735 (peptide)
peptide: QVKYCIPEWMCSSF
notes: as for B1
B5: Phage-3738 (peptide)
peptide: HSVHCVPMWMCTGF
notes: as for B1
B6: Phage-3729 (peptide)
peptide: DYSVCRPAWMCQGF
modifications: cysteine pairing not given here; also: fused to phage pIII
notes: as for B1
B7: Phage-3736 (peptide)
peptide: FTAQCVPLWMCLGF
notes: as for B1
B8: Phage-3743 (peptide)
peptide: VQPWCVPSWMCERF
notes: as for B1
B9: Phage-3730 (peptide)
peptide: FTARCEPSWMCVGF
notes: as for B1
B10: Phage-3742 (peptide)
peptide: YSISCVPQWMCEGF
notes: as for B1
B11: Phage-3741 (peptide)
peptide: WTPLCKPLWMCQGL
notes: as for B1
B12: Phage-3734 (peptide)
peptide: ELPVCRPSWMCGGL
notes: as for B1
B13: Phage-3740 (peptide)
peptide: LLLRCEPTWMCTGF
notes: as for B1
B14: Phage-3732 (peptide)
peptide: TGMACVPWWMCEGF
notes: as for B1
B15: Phage-3739 (peptide)
peptide: VNRMCVPVWMCQGF
notes: as for B1
B16: Phage-3444 (peptide)
peptide: TPHACVPDWMCYGF
B17: Phage-3442 (peptide)
peptide: VTPRCIPEWMCAGF
modifications: cysteine pairing not given here; also: fused to pIII of bacteriophage
B18: Phage-3436 (peptide)
peptide: VKPVCKPVWMCVGF
B19: Phage-3440 (peptide)
peptide: PVRVCIPQWMCIGF
B20: Phage-3437 (peptide)
peptide: PGPSCVPSWMCVGF
B21: Phage-3445 (peptide)
peptide: ITPMCIPAWMCEGV
B22: Phage-3438 (peptide)
peptide: PAQMCIPQWMCNWL
B23: Phage-3448 (peptide)
peptide: LEKVCKPMWMCTGF
B24: Phage-3439 (peptide)
peptide: SPIMCTPDWMCLGF
B25: Phage-3446 (peptide)
peptide: MPIYCVPEWMCQGL
B26: Phage-3441 (peptide)
peptide: ETMICKPEWMCTGF
B27: Phage-3447 (peptide)
peptide: YNMICQPQWMCSGF
B28: Phage-3443 (peptide)
peptide: YGLRCEPAWMCQGF
B29: Phage-3526 (peptide)
peptide: LIALCKPPWMCEWF
B30: Phage-3523 (peptide)
peptide: DMARCIPAWMCTGF
B31: Phage-3528 (peptide)
peptide: GYVMCEPRWMCEGL
B32: Phage-3524 (peptide)
peptide: ELLHCKPMWMCIGL
B33: Phage-3532 (peptide)
peptide: VVRHCVPTWMCTGF
B34: Phage-3527 (peptide)
peptide: WFRMCEPSWMCEGF
B35: Phage-3522 (peptide)
peptide: ALLSCVPPWMCLGL
B36: Phage-3530 (peptide)
peptide: EERICKPQWMCSAF
B37: Phage-3531 (peptide)
peptide: VSPSCVPPWMCVGF
B38: Phage-3519 (peptide)
peptide: SAIRCEPLWMCSGL
B39: Phage-3520 (peptide)
peptide: EVQYCVPAWMCEGF
B40: Phage-3521 (peptide)
peptide: PSISCTPQWMCFGF
B41: Phage-3529 (peptide)
peptide: VVPWCSPAWMCSGF
B42: Phage-3525 (peptide)
peptide: YPPLCKPEWMCVGL
B43: Phage-3518 (peptide)
peptide: GPKICVPMWMCDGF
B44: Phage-3995 (peptide)
peptide: MDVWCVPTWMCQHL
B45: Phage-3996 (peptide)
peptide: GTQACVPLWMCEGI

What follows are binders tested against T1, PSMA Fab (assay: phage ELISA; biotinylated PSMA Fab on neutravidin plate, blocking buffer alone; bound phage detected with anti-M13-HRP).
T1 construct: Used biotinylated and captured on neutravidin plates in the phage ELISA; also called Anti-PSMA Fab; 006 PSMA Fab
Experimental: (§1) Clonal phage were harvested as crude supernatants and screened via standard ELISAs. […] Prior to the addition of clonal phage. wells were incubated with blocking buffer and PSMA antigen or blocking buffer alone. Without washing or aspirating, clonal phage supernatants were then added to the wells and incubated for a short time. Wells were then washed followed by detection of bound phage using a horse radish conjugated anti-M13 antibody.

Binder	Phage binding ELISA signal, Anti-PSMA Fab
B1	1.39
B2	1.4
B3	1.4
B4	1.4
B5	1.39
B6	1.41
B7	1.39
B8	1.39
B9	1.41
B10	1.39
B11	1.39
B12	1.4
B13	1.39
B14	1.4
B15	1.39

Each binder was assayed against T1, PSMA Fab (assay: phage ELISA; biotinylated PSMA Fab on neutravidin plate, pre-incubated with PSMA antigen as competitor; anti-M13-HRP).
Experimental: as §1

Binder	Phage binding ELISA signal, Anti-PSMA Fab in presence of PSMA antigen
B1	0.0946
B2	0.0798
B3	0.0602
B4	0.0671
B5	0.0781
B6	0.0699
B7	0.0789
B8	0.312
B9	0.0626
B10	0.0591
B11	0.16
B12	0.0603
B13	0.0711
B14	0.0812
B15	0.0729

The binders below were run against T2, PSMA Fab (assay: phage ELISA; biotinylated PSMA Fab on neutravidin plate, pre-incubated with PSMA antigen as competitor, anti-M13 HRP detection).
T2 construct: also called Anti-PSMA Fab; 006 PSMA Fab
Experimental: as §1

Binder	Phage binding ELISA signal, Anti-PSMA Fab in presence of PSMA
B16	0.0843
B17	0.106
B18	0.122
B19	0.13
B20	0.074
B21	0.0611
B22	0.0635
B23	0.0949
B24	0.0708
B25	0.0867
B26	0.0818
B27	0.0661
B28	0.0879

What follows are binders tested against T3, 006 PSMA Fab (assay: clonal phage ELISA on captured anti-PSMA Fab; competitor PSMA antigen).
T3 construct: also called Anti-PSMA Fab
Experimental: as §1

Binder	phage binding ELISA signal with PSMA antigen present
B29	0.213
B30	0.106
B31	0.0803
B32	0.0864
B33	0.102
B34	0.11
B35	0.0728
B36	0.0804
B37	0.0791
B38	0.0578
B39	0.117
B40	0.0639
B41	0.0752
B42	0.0714
B43	0.116

The binders below were run against T4, 006 PSMA Fab (assay: clonal phage ELISA; biotinylated PSMA Fab on neutravidin plate, bound phage detected with anti-M13-HRP).
T4 construct: also called Anti-PSMA Fab
Experimental: as §1

Binder	Phage binding ELISA signal, Anti-PSMA Fab
B44	0.627
B45	0.62

Each binder was assayed against T4, 006 PSMA Fab (assay: clonal phage ELISA; biotinylated PSMA Fab on neutravidin plate, PSMA antigen as competitor, anti-M13-HRP).
Experimental: as §1

Binder	phage binding ELISA signal (Anti-PSMA Fab, wells pre-incubated with PSMA antigen)
B44	0.119
B45	0.0787

These binders were tested against T2, PSMA Fab (assay: phage ELISA; biotinylated PSMA Fab on neutravidin plate, blocking buffer alone, anti-M13 HRP detection).
Experimental: as §1

Binder	Phage binding ELISA signal, Anti-PSMA Fab
B16	1.75
B17	1.75
B18	1.76
B19	1.75
B20	1.76
B21	1.75
B22	1.75
B23	1.75
B24	1.75
B25	1.75
B26	1.75
B27	1.75
B28	1.75

What follows are binders tested against T3, 006 PSMA Fab (assay: clonal phage ELISA on biotinylated anti-PSMA Fab captured on neutravidin, anti-M13 HRP detection).
Experimental: as §1

Binder	phage binding ELISA signal
B29	1.67
B30	1.68
B31	1.67
B32	1.67
B33	1.66
B34	1.67
B35	1.68
B36	1.66
B37	1.66
B38	1.68
B39	1.68
B40	1.68
B41	1.67
B42	1.67
B43	1.68
